# Results: patent US20230399407A1 (KOREA UNIVERSITY RESEARCH AND BUSINESS FOUNDATION, published 2023)
# Residue numbers refer to the chain shown, from its start.
# B1: scFv antibody variant JS116 (scFv, V domains shown)
# VH: QVQLQESGGGLVQPGGSLRLACAGSGFTFSNFAMAWVRLAPGKGLEWVSGISDDGTITDYADSVKGRFTISRDNSKNTLYLQMNSLRAEDTAVYYCVRVPPPAPVQGPDYWGQGTTVTVSS
# VL: DVVMTQSPSAMSASVGDRVTITCRASQGISNYLAWFQQKPGKVPKRLIYAASSLQGGVPSRFRGRGSGTDFTLSISCLQSEDFATYYCQQYHSYPLTFGGGTKLSVLG
# notes: No full VH/VL is printed
# B2: scFv antibody variant JS9 (scFv, V domains shown)
# VH: EVQLVGSGGGVVQPGRSLRLSCAASGFNFDDHAMHWVRQAPGKGLEWVSSISGSGGDTYYADSVKGRFTIARDNSKNTLYLQMNSLRAEDTAVYYCATEARGLAHWGQGTLVTVSS
# VL: SSELTQDPAVSVALGQTASITCSGHKLGERYACWYQQKPGQSPVLVIYQDTKRPSGIPERFSGSNTGNTATLTITGTQAMDEADYYCQAWDSSTVVFGGGTKLTVLG
# B3: scFv antibody variant JS30 (scFv, V domains shown)
# VH: EVQLVESGPGQVKPSETLSLTCSVSGGSISSRDWWGWVRQPPGEGLEWIGEIYHSGTTNYNPSLKSRVTMSMDTSKNQLSLKLTGVTAVDTAVYYCVTYSASDAAFDSWGQGTLVTVSS
# VL: ETTLTQSPSSLSASVGDRITITCRASQSISTCLNWYQQKPGKAPKSLIYGASILQSGVSSQFSGSGPGTDFTLTIGSLQPEGFATYYCQQGNSVPLTFGGGTKVDIKR
# B4: scFv antibody variant JS41 (scFv, V domains shown)
# VH: B3 VH with S102Y
# VL: B3 VL with C32Y, N34S, I53N, S63R, G76S, G82D
# B5: scFv antibody variant JS144 (scFv, V domains shown)
# VH: B1 VH with P101S
# VL: B1 VL
# B6: scFv antibody variant JS48 (scFv, V domains shown)
# VH: B1 VH with A21T, R98K, P101S, V105M, T116L
# VL: B3 VL with I19V, C32Y, I53N, S65R, G76S, G82D
# Molecular target: T1, Fc alpha receptor-ECD-streptavidin-Alexa488 (human, UniProt P24071 22-227, labeled with Alexa488 fluorescent molecules (sites not given))
# T1 construct: Tetrameric antigen made in Expi293F cells and labelled with Alexa488 for flow cytometry; Any linker or purification tag (Ni-NTA resin was used) is not described; also called Fc alpha receptor-ECD-streptavidin-Alexa488 probe; Fc alpha receptor-ECD-streptavidin-Alexa488 antigen; not shown: streptavidin tag
# Assay: flow cytometry, legend of FIG. 8
# T1 sequence (P24071 22-227 limits assumed): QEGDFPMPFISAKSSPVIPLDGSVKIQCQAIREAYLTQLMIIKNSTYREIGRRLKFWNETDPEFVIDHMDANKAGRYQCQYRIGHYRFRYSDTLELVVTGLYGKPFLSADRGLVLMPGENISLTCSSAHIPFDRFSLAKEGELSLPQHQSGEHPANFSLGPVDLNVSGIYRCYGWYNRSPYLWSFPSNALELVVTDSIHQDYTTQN
row,binding result,Binder
1,binds,B1

# Molecular target: T1, Fc alpha …
# Assay: flow cytometry, scFv displayed on E. coli spheroplasts, 50 nM Alexa488-labelled antigen
row,binding result,Binder
1,binds,B2
2,binds,B3
3,binds,B4
4,binds,B5
5,binds,B6
